Source: patent publication US20180073039A1 (SINAI HEALTH SYSTEM, published 2018)

Tests used:
[1] = system: ubiquitylated HA-PALB2 (1-103) (in vitro ubiquitylated by CRL3-KEAP1)
HA-PALB2 (1-103) = system: T1, HA-PALB2 (1-103)
T1 sequence: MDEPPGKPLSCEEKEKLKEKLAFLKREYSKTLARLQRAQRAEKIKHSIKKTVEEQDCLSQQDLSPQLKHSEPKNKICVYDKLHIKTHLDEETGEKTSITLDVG

[2] = target: T2, BRCA2 (Homo sapiens breast cancer 2) (human, UniProt P51587 1-3418); experiment: PALB2 immunoprecipitation from 293T extracts synchronized in S or G1, immunoblot
T2 construct: Endogenous protein in 293T extracts, detected by immunoblot

Molecule: glutathione S-transferase (GST)-USP11 (Sus scrofa (pig) USP11)
- deubiquitylation reaction, immunoblot [1]: recombinant USP11 can directly de-ubiquitylate PALB2 (1-103)

Molecule: recombinant CRL3-KEAP1 (neddylated CUL3/RBX1 with GST-mKEAP1)
- in vitro ubiquylation of HA-PALB2 (1-103), immunoblot and mass spectrometry (HA-PALB2 (1-103)): ubiquitylation of the N-terminus of PALB2 (residues 1-103; fused to a haemagglutinin (HA) epitope tag) could be readily reconstituted by recombinant CRL3-KEAP1

B1: PALB2 (partner and localizer of BRCA2) (other)
chain: MDEPPGKPLSCEEKEKLKEKLAFLKREYSKTLARLQRAQRAEKIKHSIKKTVEEQDCLSQQDLSPQLKHSEPKNKICVYDKLHIKTHLDEETGEKTSITLDVGPESFNPGDGPGGLPIQRTDDTQEHFPHRVSDPSGEQKQKLPSRRKKQQKRTFISQERDCVFGTDSLRLSGKRLKEQEEISSKNPARSPVTEIRTHLLSLKSELPDSPEPVTEINEDSVLIPPTAQPEKGVDTFLRRPNFTRATTVPLQTLSDSGSSQHLEHIPPKGSSELTTHDLKNIRFTSPVSLEAQGKKMTVSTDNLLVNKAISKSGQLPTSSNLEANISCSLNELTYNNLPANENQNLKEQNQTEKSLKSPSDTLDGRNENLQESEILSQPKSLSLEATSPLSAEKHSCTVPEGLLFPAEYYVRTTRSMSNCQRKVAVEAVIQSHLDVKKKGFKNKNKDASKNLNLSNEETDQSEIRMSGTCTGQPSSRTSQKLLSLTKVSSPAGPTEDNDLSRKAVAQAPGRRYTGKRKSACTPASDHCEPLLPTSSLSIVNRSKEEVTSHKYQHEKLFIQVKGKKSRHQKEDSLSWSNSAYLSLDDDAFTAPFHRDGMLSLKQLLSFLSITDFQLPDEDFGPLKLEKVKSCSEKPVEPFESKMFGERHLKEGSCIFPEELSPKRMDTEMEDLEEDLIVLPGKSHPKRPNSQSQHTKTGLSSSILLYTPLNTVAPDDNDRPTTDMCSPAFPILGTTPAFGPQGSYEKASTEVAGRTCCTPQLAHLKDSVCLASDTKQFDSSGSPAKPHTTLQVSGRQGQPTCDCDSVPPGTPPPIESFTFKENQLCRNTCQELHKHSVEQTETAELPASDSINPGNLQLVSELKNPSGSCSVDVSAMFWERAGCKEPCIITACEDVVSLWKALDAWQWEKLYTWHFAEVPVLQIVPVPDVYNLVCVALGNLEIREIRALFCSSDDESEKQVLLKSGNIKAVLGLTKRRLVSSSGTLSDQQVEVMTFAEDGGGKENQFLMPPEETILTFAEVQGMQEALLGTTIMNNIVIWNLKTGQLLKKMHIDDSYQASVCHKAYSEMGLLFIVLSHPCAKESESLRSPVFQLIVINPKTTLSVGVMLYCLPPGQAGRFLEGDVKDHCAAAILTSGTIAIWDLLLGQCTALLPPVSDQHWSFVKWSGTDSHLLAGQKDGNIFVYHYS
notes: Endogenous protein in extracts of human 293T cells, immunoprecipitated with rabbit anti-PALB2 or detected by immunoblot; NCBI NP_078951.2
- binding result [2]: binds
